The record followed here is US20150218534A1, “MODIFIED DNA POLYMERASE” (TOYOBO CO., LTD., priority 2012, published 2015).

The labels stand for the following.
B1: KOD P36R: modified KOD DNA polymerase with P36R (protein, listed as Thermococcus kodakaraensis)
chain: MILDTDYITEDGKPVIRIFKKENGEFKIEYDRTFERYFYALLKDDSAIEEVKKITAERHGTVVTVKRVEKVQKKFLGRPVEVWKLYFTHPQDVPAIRDKIREHPAVIDIYEYDIPFAKRYLIDKGLVPMEGDEELKMLAFDIETLYHEGEEFAEGPILMISYADEEGARVITWKNVDLPYVDVVSTEREMIKRFLRVVKEKDPDVLITYNGDNFDFAYLKKRCEKLGINFALGRDGSEPKIQRMGDRFAVEVKGRIHFDLYPVIRRTINLPTYTLEAVYEAVFGQPKEKVYAEEITTAWETGENLERVARYSMEDAKVTYELGKEFLPMEAQLSRLIGQSLWDVSRSSTGNLVEWFLLRKAYERNELAPNKPDEKELARRRQSYEGGYVKEPERGLWENIVYLDFRSLYPSIIITHNVSPDTLNREGCKEYDVAPQVGHRFCKDFPGFIPSLLGDLLEERQKIKKKMKATIDPIERKLLDYRQRAIKILANSYYGYYGYARARWYCKECAESVTAWGREYITMTIKEIEEKYGFKVIYSDTDGFFATIPGADAETVKKKAMEFLKYINAKLPGALELEYEGFYKRGFFVTKKKYAVIDEEGKITTRGLEIVRRDWSEIAKETQARVLEALLKDGDVEKAVRIVKEVTEKLSKYEVPPEKLVIHEQITRDLKDYKATGPHVAVAKRLAARGVKIRPGTVISYIVLKGSGRIGDRAIPFDEFDPTKHKYDAEYYIENQVLPAVERILRAFGYRKEDLRYQKTRQVGLSAWLKPKGT
B2: KOD V93R: modified KOD DNA polymerase with V93R (protein, listed as Thermococcus kodakaraensis)
chain: B1 chain with R36P, V93R
B3: KOD V93Q: modified KOD DNA polymerase with V93Q (protein, listed as Thermococcus kodakaraensis)
chain: B1 chain with R36P, V93Q
B4: KOD P36H/V93K: modified KOD DNA polymerase with P36H and V93K (protein, listed as Thermococcus kodakaraensis)
chain: B1 chain with R36H, V93K
B5: KOD V93K: modified KOD DNA polymerase with V93K (protein, listed as Thermococcus kodakaraensis)
chain: B1 chain with R36P, V93K

Substitutions are numbered along the chain they refer to. In names and notes the source's numbering stands. A value given as a limit tells only on which side of the number the result lay.

For one assay, the system named is 482 bp of human β-globin. As to the kind of experiment: PCR amplification of 482 bp of human β-globin with dUTP in place of dTTP. As to conditions: dTTP replaced by dUTP, 35 cycles. The assay is classed as biochemical. Set-up: key to Results of PCR in the presence of dUTP 481 bp: A: Amplified; B: Amplified (faint band); C: Not amplified. The essentials:
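482 bp human β-globin amplified from 10 ng human genomic DNA with 1 U enzyme premixed with KOD antibody, using 0.2 mM dNTPs with either dTTP or dUTP, 1.5 mM MgSO4, 15 pmol primers. Cycling: 94 °C 2 min, then 35 cycles of 98 °C 10 s, 68 °C 1 min; products analysed by MultiNA DNA-1000 microchip electrophoresis.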
With B1, the “Results of PCR in the presence of dUTP 481 bp” value (“Results of PCR” below) is reported as “A”.

Regarding B2, the “Results of PCR” value is recorded as “A”.

In the case of B3, the “Results of PCR” value is reported as “A”.

On to B4, for which the “Results of PCR” value is recorded as “A”.

In the case of B5, the “Results of PCR” value was “A”.

The subject of the next assay is human genomic DNA (about 1.3 kb) with dUTP added. As to the kind of experiment: Evaluation of uracil (dUTP) sensitivity by PCR with dUTP added to the reaction. Conditions: closer to 0 = stronger sensitivity to dUTP, closer to 10 = lower sensitivity; summary of Examples 1 to 3. The assay is classed as biochemical. In outline:
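Each enzyme (1 U) amplified about 1.3 kb from 10 ng human genomic DNA in KOD-Plus-Ver. 2 buffer with 1.5 mM MgSO4 and 0.2 mM dNTPs. dUTP was added at final 0.5, 5, 50, 100 and 200 μM, over 30 cycles of 98/65/68° C. Sensitivity is the dUTP level still yielding product on ethidium bromide-stained agarose gel.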
On to B1, for which the “Evaluation of dUTP resisitance on a 11-point scale” value (“Evaluation of dUTP resisitance” below) was 5.

Regarding B2, the “Evaluation of dUTP resisitance” value is 5.

Turning to B3, the “Evaluation of dUTP resisitance” value is 3.

With B4, the “Evaluation of dUTP resisitance” value amounted to 7.

With B5, the “Evaluation of dUTP resisitance” value came out at 6.

Staying with this assay, now noted: dUTP added to 0.5, 5, 50, 100, 200 μM; about 1.3 kb, 30 cycles, 1 U enzyme.
For the molecule B1, the “dUTP resistance” value was above 200 µM.

For B2, the “dUTP resistance” value was above 200 µM.

For B3, the “dUTP resistance” value was 100 µM.

In the case of B4, the “dUTP resistance” value is above 200 µM.

As to B5, the “dUTP resistance” value was above 200 µM.

The same assay, now with this note: some amount of dUTP added.
For the molecule B1, the “PCR products on addition of dUTP” value was “PCR products were confirmed”.

On to B2, for which the “PCR products on addition of dUTP” value is listed as “PCR products were confirmed”.

Turning to B3, the “PCR products on addition of dUTP” value is listed as “PCR products were confirmed”.

B5: the “PCR products on addition of dUTP” value is “PCR products were confirmed”.
